Assays:
[1] = tested on: follicle-stimulating hormone (FSH); experiment: FSH production in DIO mice; assay type: in vivo; conditions: 3 weeks of treatment
Protocol: (§1) Experiments were performed to assess the effects of P1229 on body composition and metabolism in diet-induced obese (DIO) mice. DIO mice were purchased from Jackson Laboratories (#380050). Briefly, mice were fed a high-fat diet (HFD, 60% kcal from fat) from 6 weeks of age until 22 weeks of age (total of 16 weeks on the HFD). […] After 3 weeks of treatments, some animals were sacrificed and scanned by EchoMRI […] (FIGS. 11A-F), while others were sacrificed for tissue collection and RNA analysis. Animals were maintained on the HFD throughout the acclimatization and treatment periods. The murine version of bimagrumab used for these experiments comprises the heavy chain amino acid sequence of SEQ ID NO: 376 and the light chain sequence of SEQ ID NO: 377.
Follicle-stimulating hormone (FSH) is a known biomarker of in vivo target engagement for activin receptor-based traps (See Attie et al. (2013). Muscle Nerve, 47: 416-423). To further validate in vivo target engagement for exemplary agents, FSH production was evaluated in DIO mice, as described above.

[2] = tested on: diet-induced obese (DIO) mice; experiment: Body composition and metabolism in diet-induced obese (DIO) mice; assay type: in vivo
Protocol: as §1

DIO mice = experiment: Body composition in high fat diet mice, alone and in combination with incretin mimetics; assay type: in vivo
Protocol: Experiments were performed in vivo to investigate the potential for additive or synergistic effects between exemplary ActRIIB-ECD polypeptide constructs and incretin mimetics.

activin B = target: T1, activin B (UniProt P09529 293-407); experiment: cell-based or functional assay
T1 sequence (looked up): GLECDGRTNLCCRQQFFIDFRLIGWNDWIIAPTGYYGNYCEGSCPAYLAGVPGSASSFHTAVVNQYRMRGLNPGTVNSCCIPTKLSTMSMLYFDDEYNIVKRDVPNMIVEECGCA

GDF-8 = GDF-8 (UniProt O14793 267-375); experiment: cell-based or functional assay
[3] = target: T2, recombinant human activin A (human, UniProt P08476 311-426); experiment: cell-based or functional assay
T2 sequence (looked up): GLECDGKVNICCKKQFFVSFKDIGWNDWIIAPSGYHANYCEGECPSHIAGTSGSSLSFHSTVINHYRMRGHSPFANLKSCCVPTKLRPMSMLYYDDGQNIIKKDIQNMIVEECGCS

GDF-11 = GDF-11 (UniProt O95390 299-407); experiment: cell-based or functional assay
BMP-9 = target: T3, BMP-9 (UniProt Q9UK05 320-429); experiment: cell-based or functional assay
T3 sequence (looked up): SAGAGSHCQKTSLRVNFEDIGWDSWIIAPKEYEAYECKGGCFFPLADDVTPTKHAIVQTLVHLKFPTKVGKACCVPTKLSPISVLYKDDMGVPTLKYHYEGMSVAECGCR

BMP-10 = target: T4, BMP-10 (UniProt O95393 317-424); experiment: cell-based or functional assay
T4 sequence (looked up): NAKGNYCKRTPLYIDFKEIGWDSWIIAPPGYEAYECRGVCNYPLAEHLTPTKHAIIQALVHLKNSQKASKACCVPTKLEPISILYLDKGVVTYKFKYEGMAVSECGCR

[4] = target: T2, recombinant human activin A; experiment: direct ELISA, activin A coated, anti-human Fc-HRP; co-formulation with semaglutide, D 28 at 2-8°C
Protocol: (§2) In each case, the following parameters were assessed: a) monomer content (size exclusion chromatography), b) activin A and GDF-8 neutralization (cell-based assays [CBAs]), c) activin A binding (ELISA), d) GLP-1 receptor binding (ELISA).
(§3) Potency testing by ELISA. […] Blocking buffer (1% BSA, 0.05% tween-20 in PBS, 300 μL/well) was added to each well and the plate was incubated for 1 hour at RT. Starting at 2.5 μg/mL, test agents were diluted in assay diluent (1% BSA, 0.05% tween-20 in PBS, 100 μL/well) and loaded on the plate for 1 h at RT.

[5] = target: T2, recombinant human activin A; experiment: direct ELISA, activin A coated, anti-human Fc-HRP; co-formulation with semaglutide, D 7 at 2-8°C
Protocol: as §2, §3

[6] = target: T2, recombinant human activin A; experiment: direct ELISA, activin A coated, anti-human Fc-HRP; co-formulation with semaglutide, D 0
Protocol: as §2, §3

[7] = target: T2, recombinant human activin A; experiment: direct ELISA, activin A coated, anti-human Fc-HRP; co-formulation with semaglutide, D 28 at room temperature
Protocol: as §2, §3

[8] = target: T2, recombinant human activin A; experiment: direct ELISA, activin A coated, anti-human Fc-HRP; co-formulation with semaglutide, D 7 at room temperature
Protocol: as §2, §3

GDF-11, sequence (O95390 299-407 limits assumed): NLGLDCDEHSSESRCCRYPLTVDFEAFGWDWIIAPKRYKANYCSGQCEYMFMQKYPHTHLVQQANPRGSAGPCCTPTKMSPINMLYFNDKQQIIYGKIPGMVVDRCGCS

B1: P1307: murine version of bimagrumab, an antibody targeting ActRIIB and ActRIIA; heavy chain SEQ ID NO: 376, light chain SEQ ID NO: 377 (antibody)
heavy: MDWTWRILFLVAAATGTHAQVQLVQSGAEVKKPGASVKVSCKASGYTFTSSYINWVRQAPGQGLEWMGTINPVSGSTSYAQKFQGRVTMTRDTSISTAYMELSSLRSEDTAVYYCARGGWFDYWGQGTLVTVSSAKTTAPSVYPLAPVCGDTTGSSVTLGCLVKGYFPEPVTLTWNSGSLSSGVHTFPAVLQSDLYTLSSSVTVTSSTWPSQSITCNVAHPASSTKVDKKIEPRGPTIKPCPPCKCPAPNAAGGPSVFIFPPKIKDVLMISLSPIVTCVVVDVSEDDPDVQISWFVNNVEVHTAQTQTHREDYNSTLRVVSALPIQHQDWMSGKEFKCKVNNKDLPAPIERTISKPKGSVRAPQVYVLPPPEEEMTKKQVTLTCMVTDFMPEDIYVEWTNNGKTELNYKNTEPVLDSDGSYFMYSKLRVEKKNWVERNSYSCSVVHEGLHNHHTTKSFSRTPGK
light: MVLQTQVFISLLLWISGAYGDIALTQPASVSGSPGQSITISCTGTSSDVGSYNYVNWYQQHPGKAPKLMIYGVSKRPSGVSNRFSGSKSGNTASLTISGLQAEDEADYYCGTFAGGSYYGVFGGGTKLTVLGQPKSTPTLTVFPPSSEELKENKATLVCLISNFSPSGVTVAWKANGTPITQGVDTSNPTKEGNKFMASSFLHLTSDQWRSHNSFTCQVTHEGDTVEKSLSPAECL
- FSH production [1]: significant decreases in FSH production
- hepatic Ahsg expression [2]: reduced Ahsg expression
- hepatic Fgf21 expression [2]: reduced
- hepatic Inhbe expression [2]: significantly decreased Inhbe expression
- Mss51 gene expression in gastrocnemius muscle ([2]; 3 weeks): reduced Mss51 gene expression
- fat mass and lean mass (EchoMRI) ([2]; 3 weeks s.c., P75, P1229 25 mg/kg twice weekly, P1373 5, 20, 50 mg/kg twice weekly, P1307 20 mg/kg weekly): promoted lean mass gain but less fat loss
- Body weight (% change from baseline) (DIO mice; DIO mice, 21 days s.c., P1307 20 mg/kg weekly, P1229 40 mg/kg twice weekly, semaglutide 40 μg/kg daily, tirzepatide 45 μg/kg daily, alone or combined): +5.4%
- visceral, epididymal, pericardial, peri-renal, and retroperitoneal white adipose tissue weights (DIO mice; DIO mice, D21): not significantly affected
- gastrocnemius and tibialis anterior weights (DIO mice; DIO mice, D21, P1229 with or without caloric restriction): significantly increased
- Fat mass (% change from baseline) (DIO mice; as E44, NMR): −5.7%
- Lean mass (% change from baseline) (DIO mice; as E44, NMR): +12.3%
- Lean mass/fat mass ratio (DIO mice; as E44, NMR): 1.4

B2: P1372 (Fc fusion)
chain: ETRECIYYNANWELERTNQSGLERCEGEQDKRWHCYASWRNSSGTIELVKKGCWLDDFNCYDRQECVATEENPQVYFCCCEGNFCNERFTHLPEAGGPEVTYEPPPTGGGGSGGGGSGGGGTHTCPPCPAPELLGGPSVFLFPPKPKDTLYITREPEVTCVVVDVSHEDPEVKFNWYVDGVEVHNAKTKPREEQYNSTYRVVSVLTVLHQDWLNGKEYKCKVSNKALPAPIEKTISKAKGQPREPQVYTLPPSRDELTKNQVSLTCLVKGFYPSDIAVEWESNGQPENNYKTTPPVLDSDGSFFLYSKLTVDKSRWQQGNVFSCSVMHEALHNHYTQKSLSLSPG
notes: also tested in co-formulation with semaglutide, tirzepatide or retatrutide; also called ActRIIB ligand trap P1372
- Activin B IC50; TGFβ-reporter HEK293 cells (activin B): 2 nM
- GDF-8 IC50; TGFβ-reporter HEK293 cells (GDF-8): 0.18 nM
- Activin A IC50; TGFβ-reporter HEK293 cells [3]: 0.56 nM
- GDF-11 IC50; TGFβ-reporter HEK293 cells (GDF-11): 0.53 nM
- BMP-9 IC50; BMP-reporter HepG2 cells (BMP-9): > 1000 nM
- BMP-10 IC50; BMP-reporter HepG2 cells (BMP-10): > 100 nM
- ELISA potency fold-change vs P1372 alone (ref = 1) [4]: 1.3 fold
- ELISA potency fold-change vs P1372 alone (ref = 1) [5]: 0.85 fold
- ELISA potency fold-change vs P1372 alone (ref = 1) [6]: 0.98 fold
- ELISA potency fold-change vs P1372 alone (ref = 1) [7]: 0.79 fold
- ELISA potency fold-change vs P1372 alone (ref = 1) [8]: 1.4 fold

Reference: US20260193317A1, “COMBINATION THERAPY WITH ACTRIIB RECEPTOR VARIANTS AND GLP-1 AGONISTS” (35PHARMA Inc., priority 2023, published 2026)
